{"source": "the nanobody polyreactivity screen of Harvey et al. (2022)"}
{"test": "yeast display, Sf9 membrane polyspecificity reagent, FACS + sequencing; frameworks hold sequencing errors", "outline": "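Galactose-induced (36–48 hours) yeast carrying a synthetic nanobody display library were exposed to 10% biotinylated, detergent-solubilized Sf9 membrane reagent at 4 °C for 1 hour. FACS followed streptavidin microbead enrichment, using low and high (top ~1%) gates for expression (anti-HA) and reagent binding (streptavidin). Colony PCR, MiSeq 2 × 250 sequencing and CDR-length filtering followed. Labels for polyreactivity reflect the gate of origin.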"}
{"sequence": "QVQLVESGGGLVQAGGSLRLSCADSGRIFGINAKGWYRQAPGKARELVASISRRVGRTSYADSVKGRFTISRDNAKNTVYLQMNSLKPEDTAGYFCAADVWNDGSWTDYDYWGQGTQVTVSS", "polyreactivity (PSR sort gate)": "high polyreactivity"}
{"sequence": "QVQLVESGGGLVQAGGSLRLSCAASGSTFSWYSMGWYRQAPGKQRELVAAISSRGGRTYYADSVKGRFTISRDNAKNTVYLQMNSLKPDDTAVYFCAARSRRGEYDYWGQGTQVTVSS", "polyreactivity (PSR sort gate)": "high polyreactivity"}
{"sequence": "QVQLVESGGCLVQAGGSLRLSCAASGSTFKRYAMGWYRQAPGKVGELVAAISKSGGSTYYADSVKGRFTISRDNAKNTDYLQMNCLNAEDTAVYYCAAGRSIGALYYGMDYWGEGTQVTVSS", "polyreactivity (PSR sort gate)": "high polyreactivity"}
{"sequence": "QVQLVESGGGIVQAGGSLRLSCAASGLISRVYAMGWSRQAPGKEWELVAAISSGGSTNYADSVKGRFTISRDNAKNTVYLQMNSLKPEETAGYYCAARGRRTGGHYNYWGQGTQETVSS", "polyreactivity (PSR sort gate)": "low polyreactivity"}
{"sequence": "QVQLVESGGGLVQAGGSLRLSCAASGRIFGSYAMGWYRQAPGKERELVAVITKRGDSTYYADSVKGRFTISRDNAKNTVYLQMNSLKPEDTAVYYCNAGRVYYSNGYDYWGQGSQVTVSS", "polyreactivity (PSR sort gate)": "low polyreactivity"}
{"sequence": "QVQLVESGGGLVQAGSSLRLSCAASGRTLIYNAMGWYRQAPGKERELVASINRRGDSTYYADSVKGRFTISRDNAKNTVYLQMNSLKPEDTAVYYCAKVLYGGYPENRYFVGWGRDYWGQGTQVTVSS", "polyreactivity (PSR sort gate)": "high polyreactivity"}
{"sequence": "QDQLVESGGGLVQAGGSLRLSCAASGSILIHNAMGWSRQAPGKERELVAAITSGGSTNYADSVKGRFTISRDNAKNTVYLQMNSLKPEDTAVYYCATAVGRVLVGYDYWGQGTQVTLSS", "polyreactivity (PSR sort gate)": "low polyreactivity"}
{"sequence": "QVQLVESGGGLVQAGGSLRLICAASGRTIRYYAMGWYRQAPGKERELVAAITQNGGRTYYADSVKGRFTISRDNAKNTVYLQMNSLKPEDTAVYYCAKAFIQPGDKYDSWGQGTQVTVSS", "polyreactivity (PSR sort gate)": "high polyreactivity"}
{"sequence": "QVQHVESGGGLVQAGGSLRLSCAASGLTFYSYAMGWYRQAPGKERELVATISGGGSTTYADSVKGRFTISRDNAKNTVYLQMNSLKPEDTAVYYCAARSNHYRGWPVPLGYWGQGTQVTVSS", "polyreactivity (PSR sort gate)": "high polyreactivity"}
{"sequence": "QVQLVESGGGLVQAGGSLRLSCAASGSIFGRYAMGWYRQARGKERELVAAISWSGGSTYYADSVKGRFTISRDNAKNTVYLQMNSLKPEDTAVYYCAANYKYAYEYWGQGTQVTVSS", "polyreactivity (PSR sort gate)": "high polyreactivity"}
{"sequence": "QDQHVESGGGLVQAGGSLRLSCAASGTTFSLYMGWNRQSPGKERKLVAAITYSGGRTYYADSVKGRFTISRDNAKNTVYLQMNSLKPEDTAVYYCGTVFNDLTVYEYWSRFDYWGQGTQVTVSS", "polyreactivity (PSR sort gate)": "low polyreactivity"}
{"sequence": "QVQLVESGGGLVQAGGSLRLSCAASGSIFGQYAMGCYRQAPGKERELVATISSSGGSTYYADSVKGRFTISRDNAKNTVYLQMNSLKPEDTAVYYCAADWTLDPSYGYYADDYWGQGTQVTVSS", "polyreactivity (PSR sort gate)": "low polyreactivity"}
{"sequence": "QVQLVESGGGLVQAGGSLRLSCAASGRTFDGYAMGWYRQAPGKERELVAAISTSGVRTYYADSVKGRFTISRDNAKNTVYLQMNSLKPEDTAVYYCAADWTGGYEYWGQGTQVTVSS", "polyreactivity (PSR sort gate)": "high polyreactivity"}
{"sequence": "QEQLVDSGGGLVQAGGSLRLSCAASVRIFGRYVMGWYRQAPGKERELVAAITSRDDSTYYADSVKGRFTISRDNAKNTVYLQMNSLKPEDTAVYYCAATWGRGYDYCGQGTQVTVSS", "polyreactivity (PSR sort gate)": "high polyreactivity"}
{"sequence": "QVQLVESGGGLVQAGGSLRLSCAASGRIFQGYVMGWYRQAPGKERELVAAITTGGSTYYADSVKGRFTISRDNAKNTVYLQMNSLKPEDTAVYYCAAKPTRSRKIYEYWGQGTQVTVSS", "polyreactivity (PSR sort gate)": "low polyreactivity"}
{"sequence": "QVQLVESGGGLVQAGGSLRLSCAASGFTFQYYAMGWYRQAPGKERELVAAISWSGASTYYADSVKGRFTISRDNAKNTVYLQMNSLKPEDTAVYYSAAKYYRDRDWGQGTQVTVSS", "polyreactivity (PSR sort gate)": "high polyreactivity"}
{"sequence": "QVQLVESGGGLVQAGGSLRLSCAASGTLSSYAMGWYRQAPGKERELVAAISLSGGSTYADSVKGRFTISRDNAKNTVYLQMNSLKPEDTAVYYCAKDWDVDITWSFSIYNYWGQGTQVTVSS", "polyreactivity (PSR sort gate)": "low polyreactivity"}
{"sequence": "QVQHVESGGGLVQAGGSLRLSCAASGRIIPGNAMGWYRQAPGKERDLVAAISYGGGSTYYADSVKGRFTISRDNAKNTVYLQMNSLKPEATAVYYCNAGWIRNYGFSIVTYDYWGQGTQVTVSS", "polyreactivity (PSR sort gate)": "low polyreactivity"}
{"sequence": "QVQLVESGGGLVQAGGSLRLSCAASGIIFVDNDMGWYRQAPGKERELVADISDSGGSTNYADSVKGRFTISRDNAKNTVYLQMNSLKPEDTAVYYCAADSADPTEYDYWGQGTQVSVSS", "polyreactivity (PSR sort gate)": "low polyreactivity"}
{"sequence": "QVQLVESGGGLVQAGGSLRLSCADSGIIFNYYAMGWSRQAPGKEREFVASITSSGSSTYYADSVKGRFTITRDNAKNTVYLQMNSLKPEDTAVYYCAARYLWPKQGGGWGYYSCGQGTQVTVSS", "polyreactivity (PSR sort gate)": "high polyreactivity"}
{"sequence": "QVQLVESGGGLVQAGGSLRLSCAASGFIFRRYAMGWYRQAPGKERELVAIITSGVRTYYADSVKGRFTISRDNAKNTVYLQMNSLKPEDTAVYYCASRVKDYPEYDYWGQGTQVTVSS", "polyreactivity (PSR sort gate)": "low polyreactivity"}
{"sequence": "QVQLVESGGGLVQAGGSLRLSCAASGSTFLKNAMGWYRQAPGKERELVAAISYSTTRTYYADSVKGRFTISRDNAKNTVYLQMNSLKPEDTAVYYCNKASYWGSGFDYWGQGTQVTVSS", "polyreactivity (PSR sort gate)": "low polyreactivity"}
{"sequence": "QVQLVESGGGLVQAGGSLRLSCAASGIIIDYYTMGWYRQAPGKERELVAAINKSGGSTYADSVKGRFTISRDNAKNTVYLQMNSLKPEDNAVYYCAAEVDYSYWPEYARKYYYWGQGTQVTVSS", "polyreactivity (PSR sort gate)": "low polyreactivity"}
{"sequence": "QVQLVESGGGLVQAGGSLRVSCAASGSNFLGYTMGWYRQAPGKERELVAAINSSGGSTYYADSVKGRFTISRDNAKNNVYLQMNSLKPEDTAVYYCADANSILLFDSWGQGTQVTVSS", "polyreactivity (PSR sort gate)": "low polyreactivity"}
{"sequence": "QVQLAESGGGLVQAGGSLRLSCAASGRIFSGYAMGWSRQAPGKERELVAAITSVGSTNYADSVKGRFTISRDNAKNTVYLQMNSLKPEDTAVYYCAAKFVRPYRMYYWGQGTQVTVSS", "polyreactivity (PSR sort gate)": "high polyreactivity"}
{"sequence": "QVQLVESRGGLVQAGGSLRLSCAASGSIFYRNVMGWYTQAPRKEREWVAAISGRGGSTYYADSVKGRFTISRDNAKNTVYLQFTSLKPEDTAVYYCATELTYRHGYWGQGTQVTVSS", "polyreactivity (PSR sort gate)": "high polyreactivity"}
{"sequence": "QVQLVESGGGLVQAGGSIRLSCAASGFIFRGNAMGWYRQAPGKERELVARISGSGDSTYYADSVKGRFTISRDNAKNTVYFQMNSQKPEATEVYDCNADVFPGVEAYDSTIEYYSWGQGTQVTVSS", "polyreactivity (PSR sort gate)": "low polyreactivity"}
{"sequence": "QVQLVESGGGLVQAGGSLRLRCAASGSIFRRYAMGRYRQAPGKERELVATITSTDSTNYADSVKGRFTISRDNAKNTVYLQMNSLKPEDTAVYYCAKRPYDYRLNSEYYYWGQGTQVTVSS", "polyreactivity (PSR sort gate)": "low polyreactivity"}
{"sequence": "QVQLVESGAGLVQAGGSLRLSCAASGRTFYYYAMGWYRQAPGKERELVAAISSNGGSTYADSVKGRFTISRDNAKNTVYLQMNSLKPEDTAVYYCAAEPWWQEGDYWGQGTQVTVSS", "polyreactivity (PSR sort gate)": "high polyreactivity"}
{"sequence": "QVQLVESGGGLVQAGGSLRLSCAASGSTFTTNVMGWYRQAPGKERELVAAISWSSGSTYYADSVKGRFTISRDNAKNTVYLQMNSLKPEDTAVYYCAAKSTYVVSKMNYWGQGTQVTVSS", "polyreactivity (PSR sort gate)": "high polyreactivity"}
{"sequence": "QVQLVESGGGLVQAGGSLRLSCAASGFTFARYAMGWYIQAPGKEREFVAAISLSTTSTYYADSVKGRFTISRDNAKNTVYLQMNSLKPEDTAVYYCATDIVGPHVDYWGQGTQVTVSS", "polyreactivity (PSR sort gate)": "low polyreactivity"}
{"sequence": "QVQLVESGGRLVQAGGSLRLSCAASGRIFAFYAMGWYRQAPGKERELVAAITSGGSTKYADSVKGRFTISRDNAKNTVYLQMNSLKPEDTAVYYCAAVESGYGSKRFYYWGQGTQVTVSS", "polyreactivity (PSR sort gate)": "high polyreactivity"}
{"sequence": "QVQLVESGGGLVQAGGSLRLSCAASGNTFRNYAMGWYRQAPGKERELVAAISWTGARTYYADSVKGRFTISRDNAKNTVYLQMNSLKPEDTAVYYCARPLQWWSPSGTVDYGYWGQGTQVTVSS", "polyreactivity (PSR sort gate)": "high polyreactivity"}
{"sequence": "QVQLVESGGGLVQAGGSLRLSCAASGIIFWRYAMGWYRQAPGKERELVASISWSGGSTSYADSVKGRFTISRDNAKNTVYLQMNSLKPEDTAVYYCAAVFYYRRRYYYWGQGTQVTVSS", "polyreactivity (PSR sort gate)": "high polyreactivity"}
{"sequence": "QVQLVESGGGLVQAGGSLRLSCAASGSTFEQYAMGWYRQAPGTERELVASISTGGGRTYYADSVKGRFTISRDNAKYTVYLQMNSLKPEETAVFYCNKRYRGYKTGYSRFDYWVQGTQVTVSS", "polyreactivity (PSR sort gate)": "low polyreactivity"}
{"sequence": "QVQLVESGGGLVQAGGSLRLSCAASGSTFKYYAMGWYRQAPGKERELVATITRRSGSTYYADSVKGRFTISRDNAKNTVYLQMNSLKPEDTAVYYCNAYGPYKYNYWGQGTQVTVSS", "polyreactivity (PSR sort gate)": "high polyreactivity"}
{"sequence": "QVQLVESGRGLVLAGGSLRLSCAASGFIFLEYAMGWYRQAPGKERELVAASSSRGTRTYYADSVKGRFTISRDNAKNTGYLQMNSLKPEDTAVYYCAARSIAPTNLKTYLLDMDYWGQGTQVTVSS", "polyreactivity (PSR sort gate)": "high polyreactivity"}
{"sequence": "QVQLVESGGGLVQAGGSLRLSCAASGSIFRYYAMGWYRQAPGKERELVAAITSGGSTSYADSVKGRFTISRDNAKNTVYLQMNSLKPEDTAVYYCAKRSRHNKYYYWGQGTQVTVSS", "polyreactivity (PSR sort gate)": "high polyreactivity"}
{"sequence": "QVQLVESGGGLVQAGGSLRLICAASGRIFGRNAMGWYRQARGKERELVAGISSGGTTDYADSVKGRFTISRDNAKNTVYLQMNSLKPEDTAVYYCNVDNDDSAFYAIFVLYDYWGEGTQVTVSS", "polyreactivity (PSR sort gate)": "low polyreactivity"}
{"sequence": "QVQLVESGGGLVQAGGSLRLSCAASGSIISRNAMGWYRQAPGKERELVATIRYRGGSTYYADSVKGRFTISRDNAKNTVYLQMNSLKPEDTAVYYCAARRSHPPDPRFRYGYWGQGTQVTVSS", "polyreactivity (PSR sort gate)": "high polyreactivity"}
{"sequence": "QVQLVESGGGLVQAGGSLRLSCAGSGSTFRSNAMGWYRQAPGKERELVAAISQRGGSTYYADSVKGRFTISRDNAKNTVYLQMNSLKPEDTAVYYCAAQYFRRSGYWGQGTQVTVSS", "polyreactivity (PSR sort gate)": "high polyreactivity"}
{"sequence": "QVQLVESGGGLVQAGGSLRLSCAASGRTFGRYAMGWYRQAPGKERDLVATITSGGSTNYADSVKGRFTISRDNAKNTVYLQMNSLKPVDTAVYYCAAEFSPSRWAYSEGALRYNYWGHGTQVTVSS", "polyreactivity (PSR sort gate)": "low polyreactivity"}
{"sequence": "QVQLVESGGGLVQAGGSLRLSCAASGLTFTGYAMGWYRQAPGKERELVASISRSGASTFYADSVKGRFTISRDNAKNTVYLQMNSLKPEDTAVYYCAAVPGWLTSRYYYWGQGTHVTVSS", "polyreactivity (PSR sort gate)": "high polyreactivity"}
